{"source": "patent US20250388684A1", "about": "(published 2025)", "binders": {"B1": {"name": "13F3H6-hz-eADCC (13F3H6-hz with ADCC-enhanced IgG1 Fc) (antibody)", "heavy": "EVQLVESGGGLVQPGESLRLSCAASGFTFNAYAMNWVRQAPGQGLEWVARIRTKSNNYATYYADSVKGRFTISRDDSKNTLYLEMNSLRAEDTAVYYCVRHKKVREGYAMDYWGQGTLVTVSSASTKGPSVFPLAPSSKSTSGGTAALGCLVKDYFPEPVTVSWNSGALTSGVHTFPAVLQSSGLYSLSSVVTVPSSSLGTQTYICNVNHKPSNTKVDKKVEPKSCDKTHTCPPCPAPELVGGPSVFLLPPKPKDTLMISRTPEVTCVVVDVSHEDPEVKFNWYVDGVEVHNAKTKPPEEQYNSTLRVVSVLTVLHQDWLNGKEYKCKVSNKALPAPIEKTISKAKGQPREPQVYTLPPSREEMTKNQVSLTCLVKGFYPSDIAVEWESNGQPENNYKTTPLVLDSDGSFFLYSKLTVDKSRWQQGNVFSCSVMHEALHNHYTQKSLSLSPGK", "light": "not shown"}}, "key": {"[1]": {"target": "T1, human CCR8 (C-C chemokine receptor type 8) (human, UniProt P51685 1-355)", "T1 sequence (P51685 whole entry)": "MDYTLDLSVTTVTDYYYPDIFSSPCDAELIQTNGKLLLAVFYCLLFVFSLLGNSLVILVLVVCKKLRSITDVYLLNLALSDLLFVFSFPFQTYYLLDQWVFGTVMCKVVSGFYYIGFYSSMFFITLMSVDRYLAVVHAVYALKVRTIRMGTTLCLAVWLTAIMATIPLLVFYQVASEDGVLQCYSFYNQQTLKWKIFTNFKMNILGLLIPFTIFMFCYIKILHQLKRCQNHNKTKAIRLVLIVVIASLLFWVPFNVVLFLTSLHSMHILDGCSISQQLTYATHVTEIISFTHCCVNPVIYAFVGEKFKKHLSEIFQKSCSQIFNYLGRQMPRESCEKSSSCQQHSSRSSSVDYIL", "experiment": "FACS cell binding; Control"}, "[2]": {"target": "T1, human CCR8 (C-C chemokine receptor type …)", "experiment": "FACS cell binding; human plasma 37°C 7 Day"}, "[3]": {"target": "T1, human CCR8 (C-C chemokine receptor type …)", "experiment": "FACS cell binding; human plasma 37°C 14 Day"}}, "data": [{"binder": "B1", "values": [{"measurement": "EC50", "setting": "[1]", "result": 0.035, "unit": "µg/mL"}, {"measurement": "EC50", "setting": "[2]", "result": 0.0425, "unit": "µg/mL"}, {"measurement": "EC50", "setting": "[3]", "result": 0.039, "unit": "µg/mL"}]}]}
